Measured values published in patent publication US20240270846A1 (published 2024).

B1: CE115HA000/GLS3000 G89L one-arm antibody (antibody, human IgG1, kappa, L234A L235A, N297A, name in Kabat numbering)
heavy: QVQLVESGGGVVQPGRSLRLSCAASGFTFSNAWMHWVRQAPGKGLEWVAQIKAKSNNYATYYAESVKGRFTISRDDSKNSLYLQMNSLKTEDTAVYYCRYVHYGAYYGVDAWGQGTTVTVSSASTKGPSVFPLAPSSKSTSGGTAALGCLVKDYFPEPVTVSWNSGALTSGVHTFPAVLQSSGLYSLSSVVTVPSSSLGTQTYICNVNHKPSNTKVDKKVEPKSCDKTHTCPPCPAPEAAGGPSVFLFPPKPKDTLMISRTPEVTCVVVDVSHEDPEVKFNWYVDGVEVHNAKTKPREEQYASTYRVVSVLTVLHQDWLNGKEYKCKVSNKALPAPIEKTISKAKGQPREPQVYTLPPSRCELTKNQVSLSCAVKGFYPSDIAVEWESNGQPENNYKTTPPVLDSDGSFFLVSKLTVDKSRWQQGNVFSCSVMHEALHNHYTQKSLSLSPDYKDDDDK
chain: EPKSSDKTHTCPPCPAPELLGGPSVFLFPPKPKDTLMISRTPEVTCVVVDVSHEDPEVKFNWYVDGVEVHNAKTKPREEQYNSTYRVVSVLTVLHQDWLNGKEYKCKVSNKALPAPIEKTISKAKGQPREPQVCTLPPSRDELTKNQVSLWCLVKGFYPSDIAVEWESNGQPENNYKTTPPVLDSDGSFFLYSKLTVDKSRWQQGNVFSCSVMHEALHNRYTQKSLSLSP
light: DIVMTQSPLSLPVTPGEPASISCRSSQSLVHSNRNTYLHWYQQKPGQAPRLLIYKVSNRFSGVPDRFSGSGSGTDFTLKISRVEAEDVGVYYCLQGTQVPYTFGQGTKLEIKRTVAAPSVFIFPPSDEQLKSGTASVVCLLNNFYPREAKVQWKVDNALQSGNSQESVTEQDSKDSTYSLSSTLTLSKADYEKHKVYACEVTHQGLSSPVTKSFNRGEC
notes: one-arm IgG1
B2: CE115HA000/GLS3000 G89M one-arm antibody (antibody, human IgG1, kappa, L234A L235A, N297A, name in Kabat numbering)
heavy: QVQLVESGGGVVQPGRSLRLSCAASGFTFSNAWMHWVRQAPGKGLEWVAQIKAKSNNYATYYAESVKGRFTISRDDSKNSLYLQMNSLKTEDTAVYYCRYVHYGAYYGVDAWGQGTTVTVSSASTKGPSVFPLAPSSKSTSGGTAALGCLVKDYFPEPVTVSWNSGALTSGVHTFPAVLQSSGLYSLSSVVTVPSSSLGTQTYICNVNHKPSNTKVDKKVEPKSCDKTHTCPPCPAPEAAGGPSVFLFPPKPKDTLMISRTPEVTCVVVDVSHEDPEVKFNWYVDGVEVHNAKTKPREEQYASTYRVVSVLTVLHQDWLNGKEYKCKVSNKALPAPIEKTISKAKGQPREPQVYTLPPSRCELTKNQVSLSCAVKGFYPSDIAVEWESNGQPENNYKTTPPVLDSDGSFFLVSKLTVDKSRWQQGNVFSCSVMHEALHNHYTQKSLSLSPDYKDDDDK
chain: EPKSSDKTHTCPPCPAPELLGGPSVFLFPPKPKDTLMISRTPEVTCVVVDVSHEDPEVKFNWYVDGVEVHNAKTKPREEQYNSTYRVVSVLTVLHQDWLNGKEYKCKVSNKALPAPIEKTISKAKGQPREPQVCTLPPSRDELTKNQVSLWCLVKGFYPSDIAVEWESNGQPENNYKTTPPVLDSDGSFFLYSKLTVDKSRWQQGNVFSCSVMHEALHNRYTQKSLSLSP
light: DIVMTQSPLSLPVTPGEPASISCRSSQSLVHSNRNTYLHWYQQKPGQAPRLLIYKVSNRFSGVPDRFSGSGSGTDFTLKISRVEAEDVGVYYCMQGTQVPYTFGQGTKLEIKRTVAAPSVFIFPPSDEQLKSGTASVVCLLNNFYPREAKVQWKVDNALQSGNSQESVTEQDSKDSTYSLSSTLTLSKADYEKHKVYACEVTHQGLSSPVTKSFNRGEC
notes: one-arm IgG1
B3: CE115HA000/GLS3000 G89N one-arm antibody (antibody, human IgG1, kappa, L234A L235A, N297A, name in Kabat numbering)
heavy: QVQLVESGGGVVQPGRSLRLSCAASGFTFSNAWMHWVRQAPGKGLEWVAQIKAKSNNYATYYAESVKGRFTISRDDSKNSLYLQMNSLKTEDTAVYYCRYVHYGAYYGVDAWGQGTTVTVSSASTKGPSVFPLAPSSKSTSGGTAALGCLVKDYFPEPVTVSWNSGALTSGVHTFPAVLQSSGLYSLSSVVTVPSSSLGTQTYICNVNHKPSNTKVDKKVEPKSCDKTHTCPPCPAPEAAGGPSVFLFPPKPKDTLMISRTPEVTCVVVDVSHEDPEVKFNWYVDGVEVHNAKTKPREEQYASTYRVVSVLTVLHQDWLNGKEYKCKVSNKALPAPIEKTISKAKGQPREPQVYTLPPSRCELTKNQVSLSCAVKGFYPSDIAVEWESNGQPENNYKTTPPVLDSDGSFFLVSKLTVDKSRWQQGNVFSCSVMHEALHNHYTQKSLSLSPDYKDDDDK
chain: EPKSSDKTHTCPPCPAPELLGGPSVFLFPPKPKDTLMISRTPEVTCVVVDVSHEDPEVKFNWYVDGVEVHNAKTKPREEQYNSTYRVVSVLTVLHQDWLNGKEYKCKVSNKALPAPIEKTISKAKGQPREPQVCTLPPSRDELTKNQVSLWCLVKGFYPSDIAVEWESNGQPENNYKTTPPVLDSDGSFFLYSKLTVDKSRWQQGNVFSCSVMHEALHNRYTQKSLSLSP
light: DIVMTQSPLSLPVTPGEPASISCRSSQSLVHSNRNTYLHWYQQKPGQAPRLLIYKVSNRFSGVPDRFSGSGSGTDFTLKISRVEAEDVGVYYCNQGTQVPYTFGQGTKLEIKRTVAAPSVFIFPPSDEQLKSGTASVVCLLNNFYPREAKVQWKVDNALQSGNSQESVTEQDSKDSTYSLSSTLTLSKADYEKHKVYACEVTHQGLSSPVTKSFNRGEC
notes: one-arm IgG1
B4: CE115HA000/GLS3000 G91A one-arm antibody (antibody, human IgG1, kappa, L234A L235A, N297A, name in Kabat numbering)
heavy: QVQLVESGGGVVQPGRSLRLSCAASGFTFSNAWMHWVRQAPGKGLEWVAQIKAKSNNYATYYAESVKGRFTISRDDSKNSLYLQMNSLKTEDTAVYYCRYVHYGAYYGVDAWGQGTTVTVSSASTKGPSVFPLAPSSKSTSGGTAALGCLVKDYFPEPVTVSWNSGALTSGVHTFPAVLQSSGLYSLSSVVTVPSSSLGTQTYICNVNHKPSNTKVDKKVEPKSCDKTHTCPPCPAPEAAGGPSVFLFPPKPKDTLMISRTPEVTCVVVDVSHEDPEVKFNWYVDGVEVHNAKTKPREEQYASTYRVVSVLTVLHQDWLNGKEYKCKVSNKALPAPIEKTISKAKGQPREPQVYTLPPSRCELTKNQVSLSCAVKGFYPSDIAVEWESNGQPENNYKTTPPVLDSDGSFFLVSKLTVDKSRWQQGNVFSCSVMHEALHNHYTQKSLSLSPDYKDDDDK
chain: EPKSSDKTHTCPPCPAPELLGGPSVFLFPPKPKDTLMISRTPEVTCVVVDVSHEDPEVKFNWYVDGVEVHNAKTKPREEQYNSTYRVVSVLTVLHQDWLNGKEYKCKVSNKALPAPIEKTISKAKGQPREPQVCTLPPSRDELTKNQVSLWCLVKGFYPSDIAVEWESNGQPENNYKTTPPVLDSDGSFFLYSKLTVDKSRWQQGNVFSCSVMHEALHNRYTQKSLSLSP
light: DIVMTQSPLSLPVTPGEPASISCRSSQSLVHSNRNTYLHWYQQKPGQAPRLLIYKVSNRFSGVPDRFSGSGSGTDFTLKISRVEAEDVGVYYCGQATQVPYTFGQGTKLEIKRTVAAPSVFIFPPSDEQLKSGTASVVCLLNNFYPREAKVQWKVDNALQSGNSQESVTEQDSKDSTYSLSSTLTLSKADYEKHKVYACEVTHQGLSSPVTKSFNRGEC
notes: one-arm IgG1
B5: CE115HA000/GLS3000 G91D one-arm antibody (antibody, human IgG1, kappa, L234A L235A, N297A, name in Kabat numbering)
heavy: QVQLVESGGGVVQPGRSLRLSCAASGFTFSNAWMHWVRQAPGKGLEWVAQIKAKSNNYATYYAESVKGRFTISRDDSKNSLYLQMNSLKTEDTAVYYCRYVHYGAYYGVDAWGQGTTVTVSSASTKGPSVFPLAPSSKSTSGGTAALGCLVKDYFPEPVTVSWNSGALTSGVHTFPAVLQSSGLYSLSSVVTVPSSSLGTQTYICNVNHKPSNTKVDKKVEPKSCDKTHTCPPCPAPEAAGGPSVFLFPPKPKDTLMISRTPEVTCVVVDVSHEDPEVKFNWYVDGVEVHNAKTKPREEQYASTYRVVSVLTVLHQDWLNGKEYKCKVSNKALPAPIEKTISKAKGQPREPQVYTLPPSRCELTKNQVSLSCAVKGFYPSDIAVEWESNGQPENNYKTTPPVLDSDGSFFLVSKLTVDKSRWQQGNVFSCSVMHEALHNHYTQKSLSLSPDYKDDDDK
chain: EPKSSDKTHTCPPCPAPELLGGPSVFLFPPKPKDTLMISRTPEVTCVVVDVSHEDPEVKFNWYVDGVEVHNAKTKPREEQYNSTYRVVSVLTVLHQDWLNGKEYKCKVSNKALPAPIEKTISKAKGQPREPQVCTLPPSRDELTKNQVSLWCLVKGFYPSDIAVEWESNGQPENNYKTTPPVLDSDGSFFLYSKLTVDKSRWQQGNVFSCSVMHEALHNRYTQKSLSLSP
light: DIVMTQSPLSLPVTPGEPASISCRSSQSLVHSNRNTYLHWYQQKPGQAPRLLIYKVSNRFSGVPDRFSGSGSGTDFTLKISRVEAEDVGVYYCGQDTQVPYTFGQGTKLEIKRTVAAPSVFIFPPSDEQLKSGTASVVCLLNNFYPREAKVQWKVDNALQSGNSQESVTEQDSKDSTYSLSSTLTLSKADYEKHKVYACEVTHQGLSSPVTKSFNRGEC
notes: one-arm IgG1

Target: T1, CD3 epsilon homodimer protein (UniProt P07766 23-126)
T1 construct: also called CD3 (CD3 epsilon)
Experiment: SPR (Biacore T200), CD3e homodimer on CM4 chip, antibody as analyte; KD ratio vs unaltered GLS3000;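 further: CD3 epsilon homodimer amine-coupled to the sensor surface, antibodies injected as analyte at 25 °C with HBS-EP+ running buffer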
Experimental: An appropriate amount of CD3 epsilon homodimer protein was immobilized onto Sensor chip CM4 (GE Healthcare Japan Corp.) by the amine coupling method. Then, the antibody having an appropriate concentration was injected thereto as an analyte and allowed to interact with the CD3 epsilon homodimer protein on the sensor chip. Then, the sensor chip was regenerated by the injection of 10 mmol/L glycine-HCl (pH 1.5). The assay was conducted at 25 degrees C., and HBS-EP+(GE Healthcare Japan Corp.) was used as a running buffer. […] Each parameter was calculated using Biacore T200 Evaluation Software (GE Healthcare Japan Corp.).
Specifically, when the amount of the GLS3000-containing antibody bound was defined as X and the amount of the L chain one-amino acid altered form bound was defined as Y, a value of Z (ratio of amounts bound)=Y/X was used.

T1 sequence (P07766 23-126): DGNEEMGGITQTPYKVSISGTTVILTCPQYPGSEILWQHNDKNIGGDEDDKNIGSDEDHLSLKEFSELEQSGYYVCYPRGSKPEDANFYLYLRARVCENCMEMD

Point of comparison: B1, “KD ratio to GLS3000” value 2.38 ratio. Against it:
- B2 — lower, 1.96 ratio
- B3 — lower, 1.2 ratio
- B4 — higher, 28.1 ratio
- B5 — higher, 44.8 ratio
